According to article PMC6943125:

Legend:
DHX30N = molecular target: T1, DHX30N (human, UniProt Q7L2E3-3 1-152); test: fluorescence polarization; 30 nM RNA, pH 6.0 NMR buffer; EMSA: 50 mM Tris-HCl pH 7.5, 150 mM NaCl, 10% glycerol, on ice, 1% agarose 4 C; FP and NMR: pH 6.0 NMR buffer (composition not in material); Ni-NTA: 20 mM Na phosphate pH 6.6, 100 mM NaCl, 20 mM beta-mercaptoethanol, 1% glycerol, room temperature; settings: protein: recombinant
T1 sequence: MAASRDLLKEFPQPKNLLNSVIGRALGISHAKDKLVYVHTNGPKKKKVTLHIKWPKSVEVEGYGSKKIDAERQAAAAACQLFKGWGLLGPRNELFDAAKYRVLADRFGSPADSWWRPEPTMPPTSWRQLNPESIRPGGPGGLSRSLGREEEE

NS1 RBD = NS1 RBD (Influenza A virus Ud, UniProt P03495 1-73); test: NMR; equimolar dsRNA, pH 6.0 NMR buffer; settings: protein: recombinant; tags: none (SUMO-His6 cleaved); chain copies: 2
Sequence of NS1 RBD (P03495 1-73): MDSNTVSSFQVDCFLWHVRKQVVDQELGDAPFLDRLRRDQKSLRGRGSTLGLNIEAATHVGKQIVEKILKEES

B1: 16-nt sense ssRNA (ssRNA)
RNA: CCAUCCUCUACAGGCG
- Kd (DHX30N; label: 5' FAM): ~500 nM

B2: 16-bp dsRNA (dsRNA)
RNA 1: CCAUCCUCUACAGGCG
RNA 2: CGCCUGUAGAGGAUGG
- Kd (DHX30N; label: FAM (sense and antisense)): ~40 nM

B3: 33-bp dsRNA (dsRNA)
RNA 1: CGAGCUCGCCCGGGGAUCCUCUAGAGUCGACCUGC
RNA 2: CUGCAGGUCGACUCUAGAGGAUCCCCGGGCGAGCU
- binding result (NS1 RBD): binds
